Source: patent US20100260765A1 (AstraZeneca / MedImmune, published 2010)

Legend:
human KDR on cells = human KDR on cells (human, UniProt P35968 20-1356); assay: cell-based or functional assay
[1] = target: T1, KDR (antigen used as analyte in the Biacore assay) (UniProt P35968 20-764, limits assumed); assay: SPR, Biacore 2000; antibody amine-coupled on CM4 chip, KDR as analyte; global 1:1 fit; 23 C
T1 construct: also called the antigen KDR
Method: Each purified anti-KDR antibody was immobilized on a CM4 sensor chip within a Biacore 2000 using standard amine coupling. Immobilization levels were kept between 250 and 350 RU. The concentration of KDR was determined by UV-VIS spectroscopy using a molar absorptivity at 280 nm of 110, 440 M⁻¹ cm⁻¹, which was calculated from the sequence of the protein using a method developed by Pace et al. (G. R. Grimsley and C. N. Pace (2003) in Current Protocols in Protein Science (John Wiley & Sons, Inc.), 3.1.1-3.1.9). The antigen KDR was diluted to a starting concentration of 52 nM and tested in a 3-fold dilution series in triplicate. The running buffer contained HBS-P with 0.1 mg/ml BSA and binding responses were collected at 23 degrees C. […] The response data were globally fit with a simple 1:1 interaction model. The number shown in parentheses is the standard error in the last significant figure.

human KDR [2] = target: T2, human KDR (human, UniProt P35968 20-1356); assay: FACS competition on 293T/human KDR transfectants; antibody 5 ug/mL first, then competitor VEGF165 50 ng/mL; inhibition of VEGF binding
T2 construct: whole, on cells; also called VEGFR2; endogenously-expressed KDR in HUVEC cells
Method: (§1) Transfected cells were then seeded at 50,000 cells/well and incubated with 5 μg/mL of candidate antibody for one hour at 4° C. […] After washing, the cells were incubated with Cy5-conjugated rabbit anti-goat antibody plus 7AAD for 15 minutes at 4° C.

[3] = target: T3, whole KDR-ECD (Cat. # 676490, Calbiochem) (human, UniProt P35968 20-764); assay: ELISA, KDR-ECD coat 5 ug/mL, antibody 1 ug/mL
T3 construct: extracellular domain; Bought soluble protein; also called soluble KDR; VEGF Receptor 2 D1-7
Outline: (§2)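 Coat wells with the recombinant receptor protein, add purified antibody, then detect the bound antibody by ELISA. Isotype IgG1 and IgG4 are run alongside as controls.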

[4] = target: T4, mouse KDR (Flk-1)/Fc (Cat. #443-KD/CF, R&D Systems, Inc.) (mouse, UniProt P35918 20-762); assay: ELISA, Flk-1 coat 5 ug/mL, antibody 1 ug/mL
T4 construct: Bought reagent; also called mouse VEGFR2; KDR mouse ortholog; not shown: Fc of the bought fusion protein
Outline: (§3)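 Purified antibodies tested by ELISA for cross-reactivity against coated mouse Flk-1/Fc and for binding to soluble KDR Ig4-7 domain; […]. IgG1 and IgG4 served as antibody controls.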

[5] = target: T4, mouse KDR (Flk-1)/Fc (Cat. #443-KD/CF, …); assay: ELISA, Flk-1 coat 5 ug/mL, antibody 0.01 ug/mL
Outline: as §3

soluble KDR Ig4-7 domain [6] = target: T5, soluble KDR Ig4-7 domain (human, UniProt P35968 328-764); assay: ELISA, KDR Ig4-7 coat (1:1 diln.), antibody 0.01 ug/mL
T5 construct: domain: Ig4-7 domain; also called b-KDRIg4-7-myc-his; Ig4-7 domain of KDR; not shown: myc-his tag of the pSecTag construct
Outline: as §3

human KDR [7] = target: T2, human KDR; assay: cell-based or functional assay
cynomolgus KDR = target: T6, cynomolgus KDR (cynomolgus monkey, UniProt A0A2K5VE63 20-1356); assay: FACS on Cyno KDR/293T transfectants, antibody 5 ug/mL
T6 construct: whole, on cells; also called Cyno KDR

[8] = target: T3, whole KDR-ECD (Cat. # 676490, …); assay: ELISA, KDR-ECD coat 5 ug/mL, antibody 0.1 ug/mL
Outline: as §2

[9] = target: T3, whole KDR-ECD (Cat. # 676490, …); assay: ELISA, KDR-ECD coat 5 ug/mL, antibody 0.01 ug/mL
Outline: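 Purified antibodies were tested by ELISA for binding to immobilised target protein to assess cross-reactivity with the mouse ortholog and binding to the soluble Ig4-7 fragment. IgG1 and IgG4 isotype antibodies served as controls.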

human KDR [10] = target: T2, human KDR; assay: cell-based or functional assay; remark: listed apart in the source
soluble KDR Ig4-7 domain [11] = target: T5, soluble KDR Ig4-7 domain; assay: ELISA, KDR Ig4-7 coat (1:1 diln.), antibody 1 ug/mL
Outline: as §3

soluble KDR Ig4-7 domain [12] = target: T5, soluble KDR Ig4-7 domain; assay: ELISA, KDR Ig4-7 coat (1:1 diln.), antibody 0.1 ug/mL
Outline: as §3

human KDR [13] = target: T2, human KDR; assay: FACS titration of purified antibody on HUVEC cells (FACS Kd)
Method: The binding affinities of the purified antibodies for endogenously-expressed KDR in HUVEC cells was measured. HUVEC cells were seeded at 150,000 cells/well and incubated with titrations of purified antibody for 4 hours at 4° C. The cells were then washed and incubated with goat anti-human IgG-Fc-Cy5+5 μg/mL 7-Amino-Actinomycin (7AAD) for 30 minutes at 4° C. Bound KDR was detected using FACS analysis.

human KDR [14] = target: T2, human KDR; assay: FACS competition on 293T/human KDR transfectants; antibody 5 ug/mL first, then competitor VEGF165 50 ng/mL; bound VEGF165 detected
Method: as §1

human KDR [15] = target: T2, human KDR; assay: cell-based or functional assay; remark: listed apart in the source
[16] = target: T4, mouse KDR (Flk-1)/Fc (Cat. #443-KD/CF, …); assay: ELISA, Flk-1 coat 5 ug/mL, antibody 0.1 ug/mL
Outline: as §3

T4 sequence (P35918 20-762 limits assumed): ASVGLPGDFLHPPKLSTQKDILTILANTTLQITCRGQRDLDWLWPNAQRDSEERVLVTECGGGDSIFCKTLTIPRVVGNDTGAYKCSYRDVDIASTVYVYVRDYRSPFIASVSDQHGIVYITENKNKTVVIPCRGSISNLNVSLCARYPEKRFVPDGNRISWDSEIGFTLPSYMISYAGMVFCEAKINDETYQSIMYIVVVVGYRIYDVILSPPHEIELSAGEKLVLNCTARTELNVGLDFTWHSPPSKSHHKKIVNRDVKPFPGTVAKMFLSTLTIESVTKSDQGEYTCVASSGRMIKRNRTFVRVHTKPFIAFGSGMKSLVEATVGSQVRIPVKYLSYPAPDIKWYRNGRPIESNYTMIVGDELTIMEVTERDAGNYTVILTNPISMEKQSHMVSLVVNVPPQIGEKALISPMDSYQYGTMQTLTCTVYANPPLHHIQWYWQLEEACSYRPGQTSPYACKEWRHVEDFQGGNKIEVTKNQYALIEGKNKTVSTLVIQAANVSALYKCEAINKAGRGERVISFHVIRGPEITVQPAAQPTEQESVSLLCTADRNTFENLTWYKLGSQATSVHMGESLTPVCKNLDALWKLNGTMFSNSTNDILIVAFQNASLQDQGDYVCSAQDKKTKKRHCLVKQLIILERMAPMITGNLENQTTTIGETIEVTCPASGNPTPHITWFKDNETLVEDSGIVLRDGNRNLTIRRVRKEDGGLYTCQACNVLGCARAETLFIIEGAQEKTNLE
Sequence of human KDR on cells (P35968 20-1356): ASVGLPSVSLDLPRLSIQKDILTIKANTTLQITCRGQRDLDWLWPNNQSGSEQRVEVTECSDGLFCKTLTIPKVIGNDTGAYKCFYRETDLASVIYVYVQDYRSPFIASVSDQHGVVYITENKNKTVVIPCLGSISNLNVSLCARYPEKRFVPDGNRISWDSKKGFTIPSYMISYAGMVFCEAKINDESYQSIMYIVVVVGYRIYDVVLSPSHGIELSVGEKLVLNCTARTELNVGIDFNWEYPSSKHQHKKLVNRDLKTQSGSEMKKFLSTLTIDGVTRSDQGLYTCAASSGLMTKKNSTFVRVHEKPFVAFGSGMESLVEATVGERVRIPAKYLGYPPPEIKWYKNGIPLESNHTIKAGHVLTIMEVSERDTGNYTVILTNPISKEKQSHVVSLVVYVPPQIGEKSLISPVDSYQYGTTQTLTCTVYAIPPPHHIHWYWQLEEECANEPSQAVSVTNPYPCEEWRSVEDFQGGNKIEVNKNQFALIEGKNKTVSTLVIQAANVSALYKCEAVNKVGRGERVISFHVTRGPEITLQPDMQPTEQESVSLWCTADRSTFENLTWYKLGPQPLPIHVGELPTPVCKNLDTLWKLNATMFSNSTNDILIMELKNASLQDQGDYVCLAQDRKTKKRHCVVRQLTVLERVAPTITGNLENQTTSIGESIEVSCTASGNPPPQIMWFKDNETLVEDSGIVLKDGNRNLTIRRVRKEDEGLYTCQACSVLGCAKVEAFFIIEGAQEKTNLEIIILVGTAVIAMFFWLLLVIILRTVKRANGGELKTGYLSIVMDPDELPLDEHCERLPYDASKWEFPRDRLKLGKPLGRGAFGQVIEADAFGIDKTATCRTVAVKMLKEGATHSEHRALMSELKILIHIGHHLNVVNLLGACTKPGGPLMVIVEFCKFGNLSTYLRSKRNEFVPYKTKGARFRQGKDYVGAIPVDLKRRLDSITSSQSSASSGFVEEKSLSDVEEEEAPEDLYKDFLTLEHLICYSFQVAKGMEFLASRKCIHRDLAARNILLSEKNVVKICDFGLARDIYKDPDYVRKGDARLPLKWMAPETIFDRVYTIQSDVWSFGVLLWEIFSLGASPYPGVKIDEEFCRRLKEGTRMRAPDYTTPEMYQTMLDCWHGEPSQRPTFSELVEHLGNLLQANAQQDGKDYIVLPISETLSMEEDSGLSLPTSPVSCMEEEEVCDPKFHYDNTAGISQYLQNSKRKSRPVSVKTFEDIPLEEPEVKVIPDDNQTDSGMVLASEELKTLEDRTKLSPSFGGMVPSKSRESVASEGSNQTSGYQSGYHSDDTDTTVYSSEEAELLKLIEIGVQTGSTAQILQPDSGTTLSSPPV
T2 sequence (P35968 20-1356): as above
T5 sequence (P35968 328-764): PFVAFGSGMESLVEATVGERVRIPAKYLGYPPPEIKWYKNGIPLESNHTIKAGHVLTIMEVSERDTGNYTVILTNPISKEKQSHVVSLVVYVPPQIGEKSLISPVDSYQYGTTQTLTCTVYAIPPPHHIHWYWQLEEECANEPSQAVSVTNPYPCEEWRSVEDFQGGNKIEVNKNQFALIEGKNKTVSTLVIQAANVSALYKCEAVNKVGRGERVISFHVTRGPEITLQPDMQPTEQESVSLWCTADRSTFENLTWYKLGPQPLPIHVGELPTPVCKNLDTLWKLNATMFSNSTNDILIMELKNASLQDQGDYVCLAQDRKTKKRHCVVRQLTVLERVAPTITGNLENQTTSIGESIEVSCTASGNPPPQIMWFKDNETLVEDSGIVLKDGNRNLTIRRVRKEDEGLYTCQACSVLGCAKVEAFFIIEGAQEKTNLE
T3 sequence (P35968 20-764): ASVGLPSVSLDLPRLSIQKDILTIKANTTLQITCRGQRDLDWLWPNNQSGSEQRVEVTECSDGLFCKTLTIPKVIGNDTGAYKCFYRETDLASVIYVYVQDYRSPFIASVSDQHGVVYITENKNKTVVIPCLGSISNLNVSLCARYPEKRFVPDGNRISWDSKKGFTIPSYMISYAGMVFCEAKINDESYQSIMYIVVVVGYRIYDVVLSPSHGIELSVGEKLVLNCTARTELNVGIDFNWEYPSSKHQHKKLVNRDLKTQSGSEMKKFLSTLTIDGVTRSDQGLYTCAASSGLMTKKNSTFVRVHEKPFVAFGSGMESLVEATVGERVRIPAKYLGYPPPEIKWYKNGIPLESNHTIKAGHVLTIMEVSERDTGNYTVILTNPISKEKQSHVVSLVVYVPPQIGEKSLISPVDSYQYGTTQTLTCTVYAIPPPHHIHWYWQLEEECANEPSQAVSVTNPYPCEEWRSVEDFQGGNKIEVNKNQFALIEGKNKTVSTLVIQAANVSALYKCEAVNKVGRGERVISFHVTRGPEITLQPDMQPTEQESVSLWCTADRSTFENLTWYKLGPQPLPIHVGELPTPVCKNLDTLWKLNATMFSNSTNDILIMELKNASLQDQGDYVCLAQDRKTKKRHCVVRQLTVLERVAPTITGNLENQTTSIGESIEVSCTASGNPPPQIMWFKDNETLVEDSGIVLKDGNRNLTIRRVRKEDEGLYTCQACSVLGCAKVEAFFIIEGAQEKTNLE
T1 sequence (P35968 20-764 limits assumed): as the sequence (P35968 20-764) above
T6 sequence (A0A2K5VE63 entry or part of it): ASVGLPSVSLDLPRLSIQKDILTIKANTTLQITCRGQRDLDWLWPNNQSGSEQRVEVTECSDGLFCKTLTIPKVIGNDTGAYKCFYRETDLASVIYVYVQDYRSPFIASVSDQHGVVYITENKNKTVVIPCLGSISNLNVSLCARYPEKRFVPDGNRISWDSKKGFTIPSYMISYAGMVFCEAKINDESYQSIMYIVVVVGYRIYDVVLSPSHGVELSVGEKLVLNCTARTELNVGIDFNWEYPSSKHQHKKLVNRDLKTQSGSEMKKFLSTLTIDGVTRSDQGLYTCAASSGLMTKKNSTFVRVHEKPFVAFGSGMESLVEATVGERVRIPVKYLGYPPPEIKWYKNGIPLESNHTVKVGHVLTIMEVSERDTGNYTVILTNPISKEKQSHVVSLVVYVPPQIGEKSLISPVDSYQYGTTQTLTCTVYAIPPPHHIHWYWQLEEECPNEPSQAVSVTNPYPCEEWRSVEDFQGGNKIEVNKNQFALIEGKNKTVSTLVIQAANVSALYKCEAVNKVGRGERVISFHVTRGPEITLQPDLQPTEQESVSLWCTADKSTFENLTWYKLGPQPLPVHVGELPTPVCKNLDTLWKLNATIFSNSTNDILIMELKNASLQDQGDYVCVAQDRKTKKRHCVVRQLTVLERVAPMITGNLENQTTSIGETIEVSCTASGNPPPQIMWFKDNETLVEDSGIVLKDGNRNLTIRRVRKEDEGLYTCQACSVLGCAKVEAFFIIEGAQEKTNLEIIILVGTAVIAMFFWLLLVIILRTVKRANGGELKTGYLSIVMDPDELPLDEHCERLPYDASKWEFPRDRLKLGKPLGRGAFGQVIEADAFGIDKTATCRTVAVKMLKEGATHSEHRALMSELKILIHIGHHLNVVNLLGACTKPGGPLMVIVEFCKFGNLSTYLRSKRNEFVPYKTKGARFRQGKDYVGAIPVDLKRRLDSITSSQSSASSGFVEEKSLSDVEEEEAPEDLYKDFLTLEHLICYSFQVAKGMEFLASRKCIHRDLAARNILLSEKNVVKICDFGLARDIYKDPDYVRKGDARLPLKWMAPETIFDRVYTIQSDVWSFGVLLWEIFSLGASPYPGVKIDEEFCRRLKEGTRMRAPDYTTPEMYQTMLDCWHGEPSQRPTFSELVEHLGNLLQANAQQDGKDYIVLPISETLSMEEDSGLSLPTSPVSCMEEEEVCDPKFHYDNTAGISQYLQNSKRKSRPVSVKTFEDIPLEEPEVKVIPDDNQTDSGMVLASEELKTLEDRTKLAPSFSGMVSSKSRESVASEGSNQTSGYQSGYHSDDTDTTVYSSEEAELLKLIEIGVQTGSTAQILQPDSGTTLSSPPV

B1: 27D10 (antibody, V domains shown)
VH: QLQLQESGPGLVKPSETLSLTCTVSGGSISSRSDYWGWIRQPPGKGLEWIGTIYYSGSTFYNPSLKSRVTISVDTSKNQFSLKLSSVTAADTAVYYCARQQLVLYYFDYWGQGTLVTVSS
VL: not shown
notes: Purified fully human monoclonal antibody from XenoMouse hybridoma (IgG2 or IgG4 strains); also called MAb 27D10
Human KDR on cells
  % Inhibition (Average) of VEGF-C-mediated KDR activity, antibody 1 nM: 51%
  % Inhibition (Average) of VEGF-C-mediated KDR activity, antibody 10 nM: 76%
  % Inhibition (Average) of VEGF-C-mediated KDR activity, antibody 100 nM: 80%
  % Inhibition (N = 1) of VEGF-C-mediated KDR activity, antibody 1 nM: 52%
  % Inhibition (N = 1) of VEGF-C-mediated KDR activity, antibody 10 nM: 73%
  % Inhibition (N = 1) of VEGF-C-mediated KDR activity, antibody 100 nM: 76%
  % Inhibition (N = 2) of VEGF-C-mediated KDR activity, antibody 1 nM: 50%
  % Inhibition (N = 2) of VEGF-C-mediated KDR activity, antibody 10 nM: 79%
  % Inhibition (N = 2) of VEGF-C-mediated KDR activity, antibody 100 nM: 84%
[1]
  Kd: 4.91 nM
  koff: 0.000254 s⁻¹
  kon: 51800 M⁻¹ s⁻¹

B2: 24B3 (antibody, V domains shown)
VH: EVQLVESGGGLVKPGGSLRLSCAASGFTFSTYSMNWVRQAPGKGLEWVSFISGRSSYIYYADSVKGRFTISRDNAKNSLYLQMNSLRAEDTAVYYCSKDDWFEELWGQGTLVTVSS
VL: DIQMTQSPSSLSASVGDRVTITCRASQGIRSDLGWYQQKPGKAPKRLIYATSSLQSGVPSRFSGSGSGTEFTLTISSLQPEDFATYYCLQHNRYPWTFGQGTKVEIK
notes: Purified fully human monoclonal antibody from XenoMouse hybridoma (IgG2 or IgG4 strains); also called MAb 24B3
Human KDR on cells
  % Inhibition (Average) of VEGF-C-mediated KDR activity, antibody 1 nM: 30%
  % Inhibition (Average) of VEGF-C-mediated KDR activity, antibody 10 nM: 62%
  % Inhibition (Average) of VEGF-C-mediated KDR activity, antibody 100 nM: 71%
  % Inhibition (N = 1) of VEGF-C-mediated KDR activity, antibody 1 nM: 26%
  % Inhibition (N = 1) of VEGF-C-mediated KDR activity, antibody 10 nM: 61%
  % Inhibition (N = 1) of VEGF-C-mediated KDR activity, antibody 100 nM: 67%
  % Inhibition (N = 2) of VEGF-C-mediated KDR activity, antibody 1 nM: 34%
  % Inhibition (N = 2) of VEGF-C-mediated KDR activity, antibody 10 nM: 62%
  % Inhibition (N = 2) of VEGF-C-mediated KDR activity, antibody 100 nM: 75%
[1]
  Kd: 1.09 nM
  koff: 0.000191 s⁻¹
  kon: 175000 M⁻¹ s⁻¹

B3: 33C3 (antibody, V domains shown)
VH: QVQLVESGGGLVKPGESLRLSCAASGFTFSDYYMSWIRQAPGKGLEWVSYISHGGSTIYYADSVKGRFTISRDNAKNSLYLQMNSLRVEDTAVYFCARDDFWSGYYFNWFDPWGQGALVTVSS
VL: DIQMTQYPLSLSASVGDRVTITCRASQSISSFLNWYHQKPGKAPKLLIYGTSSLQSGVPSRFSGSGSGTDFTLTISSLQPEDFATYYCQQTYSIPLTFGGGTNVEIK
notes: Purified fully human monoclonal antibody from XenoMouse hybridoma (IgG2 or IgG4 strains); also called MAb 33C3
Human KDR on cells
  % Inhibition (Average) of VEGF-C-mediated KDR activity, antibody 1 nM: 66%
  % Inhibition (Average) of VEGF-C-mediated KDR activity, antibody 10 nM: 88%
  % Inhibition (Average) of VEGF-C-mediated KDR activity, antibody 100 nM: 85%
  % Inhibition (N = 1) of VEGF-C-mediated KDR activity, antibody 1 nM: 71%
  % Inhibition (N = 1) of VEGF-C-mediated KDR activity, antibody 10 nM: 87%
  % Inhibition (N = 1) of VEGF-C-mediated KDR activity, antibody 100 nM: 84%
  % Inhibition (N = 2) of VEGF-C-mediated KDR activity, antibody 1 nM: 61%
  % Inhibition (N = 2) of VEGF-C-mediated KDR activity, antibody 10 nM: 89%
  % Inhibition (N = 2) of VEGF-C-mediated KDR activity, antibody 100 nM: 86%
[1]
  Kd: 0.91 nM
  koff: 9.3e-05 s⁻¹
  kon: 102000 M⁻¹ s⁻¹

B4: 33C3 (antibody, V domains shown)
VH: QVQLVESGGGLVKPGESLRLSCAASGFTFSDYYMSWIRQAPGKGLEWVSYISHGGSTIYYADSVKGRFTISRDNAKNSLYLQMNSLRVEDTAVYFCARDDFWSGYYFNWFDPWGQGALVTVSS
VL: DIQMTQYPLSLSASVGDRVTITCRASQSISSFLNWYHQKPGKAPKLLIYGTSSLQSGVPSRFSGSGSGTDFTLTISSLQPEDFATYYCQQTYSIPLTFGGGTNVEIK
notes: Fully human monoclonal antibody from a XenoMouse hybridoma (IgG2 or IgG4 strain), purified
Human KDR [2]
  % Inhibition: 2%
[3]
  ELISA reading: 1.11
[4]
  ELISA reading: 3.48
[5]
  ELISA reading: 1.25
Soluble KDR Ig4-7 domain [6]
  ELISA reading: 0.073
Human KDR [7]
  KDR tyrosine phosphorylation in HUVEC, EC50 (nM), Average: 1.2 nM
  KDR tyrosine phosphorylation in HUVEC, EC50 (nM), N = 1: 1.2 nM
  KDR tyrosine phosphorylation in HUVEC, EC50 (nM), N = 2: 1.1 nM
  KDR tyrosine phosphorylation in HUVEC, Maximum Inhibition at 100 nM (% Inhibition), Average: 85%
  KDR tyrosine phosphorylation in HUVEC, Maximum Inhibition at 100 nM (% Inhibition), N = 1: 83%
  KDR tyrosine phosphorylation in HUVEC, Maximum Inhibition at 100 nM (% Inhibition), N = 2: 86%
Cynomolgus KDR
  FACS Geometric Mean Fluorescence: 108
[8]
  ELISA reading: 0.153
[9]
  ELISA reading: 0.09
Human KDR [10]
  HUVEC survival, Maximum Inhibition at 50 nM (% Inhibition), Average: 101%
  HUVEC survival, Maximum Inhibition at 50 nM (% Inhibition), N = 1: 106%
  HUVEC survival, Maximum Inhibition at 50 nM (% Inhibition), N = 2: 95%
Soluble KDR Ig4-7 domain [11]
  ELISA reading: 0.094
Soluble KDR Ig4-7 domain [12]
  ELISA reading: 0.088
Human KDR [13]
  Kd: 1 nM
Human KDR [14]
  FACS Geometric Mean Fluorescence (bound VEGF165): 126
Human KDR [15]
  6-keto Prostaglandin F1α release, EC50 (nM), Average: 3.9 nM
  6-keto Prostaglandin F1α release, EC50 (nM), N = 1: 3.5 nM
  6-keto Prostaglandin F1α release, EC50 (nM), N = 2: 4.4 nM
  6-keto Prostaglandin F1α release, Maximum Inhibition (% Inhibition), Average: 85%
  6-keto Prostaglandin F1α release, Maximum Inhibition (% Inhibition), N = 1 (200 nM): 76%
  6-keto Prostaglandin F1α release, Maximum Inhibition (% Inhibition), N = 2 (333 nM): 94%
[16]
  ELISA reading: 3.04
